Drawing on paper PMC2190564, this text covers Kd and stoichiometry N (Abp1p per actin (molar)) for one substance.

This assay has as its target yeast actin filaments (S. cerevisiae) (UniProt P60010). As to the kind of experiment: co-sedimentation.

pKd: −log10 of the molar value.

Regarding “native yeast Abp1p (from UniProt P15891 1-592) (natural protein)”, the negative-log Kd (pKd) was over 7.00 and the stoichiometry N (Abp1p per actin (molar)) was determined as 1.

Broadly, the pKd is the negative decadic logarithm of the Kd, by convention in mol/L. A higher pKd goes with a low Kd.
